In patent publication US12281340B2, “Method of producing N-acyl-amino group-containing compound” (AJINOMOTO CO., INC., priority 2018, dated 2025):

How the values were obtained:
Format in all cases: biochemical
Design in all cases: key: +: Detected; −: Not detected
[1] = Synthesis of N-caprinoylamino acid using purified acylamino acid synthetase, UPLC-MS detection; settings: +ATP
Method in brief: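 Purified enzyme (50 μg) with 5 mM amino acid, 5 mM sodium caprate, 10 mM ATP, 10 mM MgCl2, 1 mM DTT in Tris-HCl pH 8.0, 24 h at 25° C; product detected by UPLC-MS (ESI-negative) as the N-caprinoyl amino acid mass signal.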

[2] = Synthesis of N-caprinoyl-amino acid derivative, N-caprinoyl-D-amino acid and N-caprinoyl-peptide using purified acylamino acid synthetase, UPLC-MS detection; settings: +ATP
Method in brief: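 Purified enzyme (50 μg/mL) was incubated with 5 mM sodium caprate, 5 mM amino acid derivative, D-amino acid or peptide, 10 mM ATP, 10 mM MgCl2 and 1 mM DTT in 50 mM Tris-HCl, pH 8.0, for 24 h at 25 °C. After acidic methanol stop, UPLC-MS looked for the mass of the N-caprinoyl product.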

[3] = Synthesis of N-acylamino acids from various fatty acids using purified acylamino acid synthetase, UPLC-MS detection
Description: 0.1 mL of a reaction solution containing 50 mM Tris-HCl, 5 mM amino acid, 5 mM sodium fatty acid (3 mM of sodium palmitate or sodium stearate), 10 mM ATP, 10 mM MgCl2, 1 mM DTT, 200 μg/mL of the purified enzyme, pH 8.0 was shaken at 25° C. for 24 hours. When sodium palmitate or sodium stearate was used, methanol at a final concentration of 10% (v/v) was contained in the reaction solution. As the amino acid, L-Asp was used in AtGH3-6, OsGH3-8, AtGH3-5, AtGH3-12, L-Ile was used in AtJAR1, L-Ala was used in AtGH3-10, SsGH3, L-Glu was used in AtGH3-17, Gly was used in CfHP, L-Lys was used in PsIAAL, and L-Cys was used in PaHP. After completion of the reaction, 0.4 mL of the reaction stop solution (1% (v/v) phosphoric acid, 75% (v/v) methanol) was added, and the mixture was filtrated through the filter followed by being subjected to the UPLC-MS analysis to detect a signal of a molecular weight corresponding to the N-acylamino acid.
The condition for the UPLC-MS analysis is as follows.
Apparatus: ACQUITY UPLC (Waters)
Column: ACQUITY UPLC BEH C18 1.7 μm 2.1×100 mm Column (Waters), mobile phase A: 0.1% formic acid; mobile phase B: acetonitrile
• Flow rate: 0.6 mL/minute • Injection amount: 2 μL • Column temperature: 40° C. • Ionization method: ESI-negative
As a result of the UPLC-MS analysis, the signal of the molecular weight corresponding to the appropriate N-acylamino acid was confirmed in the reaction solution containing the enzyme in combination with sodium fatty acid shown in Table 7 below.

[4] = substrates GABA and sodium caprate
[5] = substrates Gly and sodium caprate
[6] = substrates L-Ala and sodium caprate
[7] = substrates L-Arg and sodium caprate
[8] = substrates L-Asn and sodium caprate
[9] = substrates L-Asp and sodium caprate
[10] = substrates L-Cys and sodium caprate
[11] = substrates L-Gln and sodium caprate
[12] = substrates L-Glu and sodium caprate
[13] = substrates L-His and sodium caprate
[14] = substrates L-Ile and sodium caprate
[15] = substrates L-Leu and sodium caprate
[16] = substrates L-Lys and sodium caprate
[17] = substrates L-Met and sodium caprate
[18] = substrates L-Phe and sodium caprate
[19] = substrates L-Pro and sodium caprate
[20] = substrates L-Ser and sodium caprate
[21] = substrates L-Thr and sodium caprate
[22] = substrates L-Trp and sodium caprate
[23] = substrates L-Tyr and sodium caprate
[24] = substrates L-Val and sodium caprate
[25] = substrates β-Ala and sodium caprate
[26] = substrates Carnosine and sodium caprate
[27] = substrates D-Ala and sodium caprate
[28] = substrates D-Asp and sodium caprate
[29] = substrates D-Cys and sodium caprate
[30] = substrates D-Glu and sodium caprate
[31] = substrates D-Ile and sodium caprate
[32] = substrates D-Lys and sodium caprate
[33] = substrates L-Asp-L-Phe and sodium caprate
[34] = substrates L-Gly-L-Gly and sodium caprate
[35] = substrates Sarcosine and sodium caprate
[36] = substrates Taurine and sodium caprate

B1: AtGH3-17: indole-3-acetic acid-amido synthetase GH3.17 from Arabidopsis thaliana, His-tagged (protein, listed as Arabidopsis thaliana)
chain: MIPSYDPNDTEAGLKLLEDLTTNAEAIQQQVLHQILSQNSGTQYLRAFLDGEADKNQQSFKNKVPVVNYDDVKPFIQRIADGESSDIVSAQPITELLTSSGTSAGKPKLMPSTAEELERKTFFYSMLVPIMNKYVDGLDEGKGMYLLFIKPEIKTPSGLMARPVLTSYYKSQHFRNRPFNKYNVYTSPDQTILCQDSKQSMYCQLLCGLVQRSHVLRVGAVFASAFLRAVKFLEDHYKELCADIRTGTVTSWITDSSCRDSVLSILNGPNQELADEIESECAEKSWEGILRRIWPKAKYVEVIVTGSMAQYIPTLEFYSGGLPLVSTMYASSECYFGINLNPLCDPADVSYTLLPNMAYFEFLPVDDKSHEEIHFATHSNTDDDDDALKEDLIVNLVNVEVGQYYEIVITTFTGLYRYRVGDILKVTGFHNKAPQFRFVQRRNVVLSIDTDKTSEEDLLNAVTQAKLNHLQHPSSLLLTEYTSYADTSSIPGHYVLFWELKPRHSNDPPKLDDKTMEDCCSEVEDCLDYVYRRCRNRDKSIGPLEIRVVSLGTFDSLMDFCVSQGSSLNQYKTPRCVKSGGALEILDSRVIGRFFSKRVPQWEPLGLDS
modifications: His-tag
notes: indole-3-acetic acid-amido synthetase GH3.17 from Arabidopsis thaliana, His-tagged
[1]; [4]
  signal of molecular weight corresponding to N-caprinoyl amino acid: +
[1]; [5]
  signal of molecular weight corresponding to N-caprinoyl amino acid: +
[1]; [6]
  signal of molecular weight corresponding to N-caprinoyl amino acid: +
[1]; [7]
  signal of molecular weight corresponding to N-caprinoyl amino acid: −
[1]; [8]
  signal of molecular weight corresponding to N-caprinoyl amino acid: +
[1]; [9]
  signal of molecular weight corresponding to N-caprinoyl amino acid: +
[1]; [10]
  signal of molecular weight corresponding to N-caprinoyl amino acid: +
[1]; [11]
  signal of molecular weight corresponding to N-caprinoyl amino acid: +
[1]; [12]
  signal of molecular weight corresponding to N-caprinoyl amino acid: +
[1]; [13]
  signal of molecular weight corresponding to N-caprinoyl amino acid: −
[1]; [14]
  signal of molecular weight corresponding to N-caprinoyl amino acid: +
[1]; [15]
  signal of molecular weight corresponding to N-caprinoyl amino acid: +
[1]; [16]
  signal of molecular weight corresponding to N-caprinoyl amino acid: −
[1]; [17]
  signal of molecular weight corresponding to N-caprinoyl amino acid: +
[1]; [18]
  signal of molecular weight corresponding to N-caprinoyl amino acid: +
[1]; [19]
  signal of molecular weight corresponding to N-caprinoyl amino acid: −
[1]; [20]
  signal of molecular weight corresponding to N-caprinoyl amino acid: +
[1]; [21]
  signal of molecular weight corresponding to N-caprinoyl amino acid: +
[1]; [22]
  signal of molecular weight corresponding to N-caprinoyl amino acid: +
[1]; [23]
  signal of molecular weight corresponding to N-caprinoyl amino acid: +
[1]; [24]
  signal of molecular weight corresponding to N-caprinoyl amino acid: +
[1]; [25]
  signal of molecular weight corresponding to N-caprinoyl amino acid: +
[2]; [26]
  signal of molecular weight corresponding to N-caprinoyl compound: −
[2]; [27]
  signal of molecular weight corresponding to N-caprinoyl compound: −
[2]; [28]
  signal of molecular weight corresponding to N-caprinoyl compound: +
[2]; [29]
  signal of molecular weight corresponding to N-caprinoyl compound: −
[2]; [30]
  signal of molecular weight corresponding to N-caprinoyl compound: +
[2]; [31]
  signal of molecular weight corresponding to N-caprinoyl compound: +
[2]; [32]
  signal of molecular weight corresponding to N-caprinoyl compound: −
[2]; [33]
  signal of molecular weight corresponding to N-caprinoyl compound: −
[2]; [34]
  signal of molecular weight corresponding to N-caprinoyl compound: +
[2]; [35]
  signal of molecular weight corresponding to N-caprinoyl compound: −
[2]; [36]
  signal of molecular weight corresponding to N-caprinoyl compound: +
[3]; substrates L-Cys and Capric acid
  signal of molecular weight corresponding to N-acylamino acid: +
[3]; substrates L-Cys and Caproic acid
  signal of molecular weight corresponding to N-acylamino acid: +
[3]; substrates L-Cys and Caprylic acid
  signal of molecular weight corresponding to N-acylamino acid: +
[3]; substrates L-Cys and Lauric acid
  signal of molecular weight corresponding to N-acylamino acid: +
[3]; substrates L-Cys and Linoleic acid
  signal of molecular weight corresponding to N-acylamino acid: −
[3]; substrates L-Cys and Palmitic acid
  signal of molecular weight corresponding to N-acylamino acid: −
[3]; substrates L-Cys and myristic acid
  signal of molecular weight corresponding to N-acylamino acid: −
[3]; substrates L-Glu and Capric acid
  signal of molecular weight corresponding to N-acylamino acid: +
[3]; substrates L-Glu and Caproic acid
  signal of molecular weight corresponding to N-acylamino acid: +
[3]; substrates L-Glu and Caprylic acid
  signal of molecular weight corresponding to N-acylamino acid: +
[3]; substrates L-Glu and Lauric acid
  signal of molecular weight corresponding to N-acylamino acid: +
[3]; substrates L-Glu and Linoleic acid
  signal of molecular weight corresponding to N-acylamino acid: −
[3]; substrates L-Glu and Palmitic acid
  signal of molecular weight corresponding to N-acylamino acid: +
[3]; substrates L-Glu and myristic acid
  signal of molecular weight corresponding to N-acylamino acid: +

B2: SsGH3: GH3 auxin-responsive promoter superfamily from Synechococcus sp. PCC 7335, His-tagged (protein)
chain: MVIHTIPKEILDSVASTGDVFAYHLLRSTGDIGETVLQYLLCLAAKVNLTGIEQDTYNADKVQEQLLNDILRSENKTLYGKKYNFDSLNVDSFRSSLPLTSYENYRESIDNVVQTGNYSQLVSEPITLFQESSGTTGKVKLIPRTNKFTLSAMRAFQAIEAVVQSHFQNPSSSSQRVLALVNTSPTKLTPTGIPRGTGTSGGLNDALQKFKLANYLIDIKYSSPSPVFLISNTEAAYYCHLLFGLLDSDINDISANFAATVLNAMKILEKAWTQLVEDIRQGKLYAGLDIDEATRRELEIRLRANPERARELQAYFEEGFEGILPRIWPSLSCIQCITTGSMQLYTDALRYYSGTVPFFSGSYGASEAWIGVNLDPEREPPAFVVTPHTAFFEFIPQDAIDQEQSATVCLTDLKPGESYEVVVTNMSGLYRYRVGDVVRCVGYHHKSPMIEFMYRRQTLLNLFGEKVSEDVIYSALSTTLREFGMAIQDIDYTCRHEFEGTPWRYVVYLEPADYEGCSSQHEMVQQRLDEVLCNLSDRYRQLREVGSIGSLKLKLVREGTFSGLKTRLLSQEHSDSQFKMPRLLTETALISFMESSL
modifications: His-tag; Synechococcus PCC 7335
notes: GH3 auxin-responsive promoter superfamily from Synechococcus sp; PCC 7335, His-tagged
[1]; [4]
  signal of molecular weight corresponding to N-caprinoyl amino acid: −
[1]; [5]
  signal of molecular weight corresponding to N-caprinoyl amino acid: +
[1]; [6]
  signal of molecular weight corresponding to N-caprinoyl amino acid: +
[1]; [7]
  signal of molecular weight corresponding to N-caprinoyl amino acid: −
[1]; [8]
  signal of molecular weight corresponding to N-caprinoyl amino acid: −
[1]; [9]
  signal of molecular weight corresponding to N-caprinoyl amino acid: +
[1]; [10]
  signal of molecular weight corresponding to N-caprinoyl amino acid: −
[1]; [11]
  signal of molecular weight corresponding to N-caprinoyl amino acid: −
[1]; [12]
  signal of molecular weight corresponding to N-caprinoyl amino acid: −
[1]; [13]
  signal of molecular weight corresponding to N-caprinoyl amino acid: −
[1]; [14]
  signal of molecular weight corresponding to N-caprinoyl amino acid: +
[1]; [15]
  signal of molecular weight corresponding to N-caprinoyl amino acid: +
[1]; [16]
  signal of molecular weight corresponding to N-caprinoyl amino acid: −
[1]; [17]
  signal of molecular weight corresponding to N-caprinoyl amino acid: +
[1]; [18]
  signal of molecular weight corresponding to N-caprinoyl amino acid: −
[1]; [19]
  signal of molecular weight corresponding to N-caprinoyl amino acid: −
[1]; [20]
  signal of molecular weight corresponding to N-caprinoyl amino acid: +
[1]; [21]
  signal of molecular weight corresponding to N-caprinoyl amino acid: −
[1]; [22]
  signal of molecular weight corresponding to N-caprinoyl amino acid: −
[1]; [23]
  signal of molecular weight corresponding to N-caprinoyl amino acid: −
[1]; [24]
  signal of molecular weight corresponding to N-caprinoyl amino acid: +
[1]; [25]
  signal of molecular weight corresponding to N-caprinoyl amino acid: +
[2]; [26]
  signal of molecular weight corresponding to N-caprinoyl compound: −
[2]; [27]
  signal of molecular weight corresponding to N-caprinoyl compound: +
[2]; [28]
  signal of molecular weight corresponding to N-caprinoyl compound: +
[2]; [29]
  signal of molecular weight corresponding to N-caprinoyl compound: −
[2]; [30]
  signal of molecular weight corresponding to N-caprinoyl compound: +
[2]; [31]
  signal of molecular weight corresponding to N-caprinoyl compound: −
[2]; [32]
  signal of molecular weight corresponding to N-caprinoyl compound: −
[2]; [33]
  signal of molecular weight corresponding to N-caprinoyl compound: −
[2]; [34]
  signal of molecular weight corresponding to N-caprinoyl compound: +
[2]; [35]
  signal of molecular weight corresponding to N-caprinoyl compound: −
[2]; [36]
  signal of molecular weight corresponding to N-caprinoyl compound: +
[3]; substrates L-Ala and Capric acid
  signal of molecular weight corresponding to N-acylamino acid: +
[3]; substrates L-Ala and Caproic acid
  signal of molecular weight corresponding to N-acylamino acid: +
[3]; substrates L-Ala and Caprylic acid
  signal of molecular weight corresponding to N-acylamino acid: +
[3]; substrates L-Ala and Lauric acid
  signal of molecular weight corresponding to N-acylamino acid: +
[3]; substrates L-Ala and Linoleic acid
  signal of molecular weight corresponding to N-acylamino acid: −
[3]; substrates L-Ala and Palmitic acid
  signal of molecular weight corresponding to N-acylamino acid: −
[3]; substrates L-Ala and myristic acid
  signal of molecular weight corresponding to N-acylamino acid: +
